From patent US20240309103A1 (Regeneron, published 2024)

B1: mAb22035 (antibody, V domains shown)
VH: EVQLVESGGGLVQPGRSLRLSCAASGFTFDDYAMHWVRQAPGKGLEWVSGISWNSGTIGYADSVKGRFTMSRDNAKNSLYLQMNSLRPEDTALYYCAKDMGVSLALWGAFDIWGQGTMVTVSS
VL: DIQMTQSPSSLSASVGDKVTITCRASQNIRTYLNWYQQKPGKAPKVLISTASSLQSGVPSRFSGSGSGTDFTLTISSLQPEDFAVFYCQQSFGIPRTFGQGTKVEIK
B2: mAb22033 (antibody, V domains shown)
VH: QVQLVQSGAEVKKPGASVTVSCKASGYTFTDYYMHWVRQAPGQGLEWMGWIKPNSGGTNSAQRFQGRITMTWDTSISTAYMELSRLRSDDTAVYYCSRGGPVMNYYYYYGMDVWGQGTTVTVSS
VL: NIQMTQSPSSLSASVGDRVTITCRASQSIDSYLNWYQQKPGKAPKLLIYVASSLQSGVPSRFSGSGSGKDFTLTISSLQPEDFATYYCQQSYSIPTFGQGTRLEIK

Columns and labels:
[1] = target: T1, human NPR1 extracellular domain expressed with a C-terminal myc-myc-hexahistidine (hNPR1-MMH) (human, UniProt P16066 33-473); assay: SPR, mAb captured, 37 C
T1 construct: also called hNPR.mmh; monomeric human NPR1
In short: (§1)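 Read-out is KD from real-time SPR (Biacore 4000). Purified mAbs sat on an anti-human Fc capture surface (mouse mAb or goat anti-Fcγ polyclonal) on CM5. Runs used HBS-ET: 10 mM HEPES, 150 mM NaCl, 3 mM EDTA, 0.05% Tween-20, pH 7.4.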

[2] = target: mouse NPR1 extracellular domain expressed with a C-terminal myc-myc-hexahistidine (mNPR1-MMH) (mouse, UniProt P18293 29-469); assay: SPR, mAb captured, 37 C
In short: as §1

[3] = target: T2, human NPR1 extracellular domain expressed with a C-terminal mouse IgG2a (hNPR1-mFc) (human); assay: SPR, mAb captured, 37 C
T2 construct: also called hNPR1-Fc; human NPR1 dimer
T2 chain: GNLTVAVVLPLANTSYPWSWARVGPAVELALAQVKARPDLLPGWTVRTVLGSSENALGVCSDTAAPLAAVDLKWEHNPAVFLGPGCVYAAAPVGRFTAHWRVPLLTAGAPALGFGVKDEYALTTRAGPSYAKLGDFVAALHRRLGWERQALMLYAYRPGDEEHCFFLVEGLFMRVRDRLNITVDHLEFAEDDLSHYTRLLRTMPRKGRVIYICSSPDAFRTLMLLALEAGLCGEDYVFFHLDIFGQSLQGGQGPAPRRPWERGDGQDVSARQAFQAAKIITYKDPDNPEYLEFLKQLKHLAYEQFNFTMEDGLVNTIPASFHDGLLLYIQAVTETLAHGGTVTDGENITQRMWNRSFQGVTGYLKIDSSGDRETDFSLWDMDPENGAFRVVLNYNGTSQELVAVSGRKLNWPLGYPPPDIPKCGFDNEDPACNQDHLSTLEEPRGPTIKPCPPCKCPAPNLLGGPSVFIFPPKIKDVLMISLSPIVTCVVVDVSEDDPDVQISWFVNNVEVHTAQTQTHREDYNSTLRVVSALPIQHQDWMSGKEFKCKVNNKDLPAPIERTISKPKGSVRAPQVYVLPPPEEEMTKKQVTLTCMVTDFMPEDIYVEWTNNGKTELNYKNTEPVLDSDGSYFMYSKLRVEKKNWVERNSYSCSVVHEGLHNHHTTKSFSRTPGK
In short: as §1

[4] = target: T3, monkey NPR1 extracellular domain expressed with a C-terminal myc-myc-hexahistidine (mfNPR1-MMH) (monkey, UniProt P16066 33-473 (human entry)); assay: SPR, mAb captured, 37 C
T3 construct: also called monomeric monkey NPR1
T3 chain: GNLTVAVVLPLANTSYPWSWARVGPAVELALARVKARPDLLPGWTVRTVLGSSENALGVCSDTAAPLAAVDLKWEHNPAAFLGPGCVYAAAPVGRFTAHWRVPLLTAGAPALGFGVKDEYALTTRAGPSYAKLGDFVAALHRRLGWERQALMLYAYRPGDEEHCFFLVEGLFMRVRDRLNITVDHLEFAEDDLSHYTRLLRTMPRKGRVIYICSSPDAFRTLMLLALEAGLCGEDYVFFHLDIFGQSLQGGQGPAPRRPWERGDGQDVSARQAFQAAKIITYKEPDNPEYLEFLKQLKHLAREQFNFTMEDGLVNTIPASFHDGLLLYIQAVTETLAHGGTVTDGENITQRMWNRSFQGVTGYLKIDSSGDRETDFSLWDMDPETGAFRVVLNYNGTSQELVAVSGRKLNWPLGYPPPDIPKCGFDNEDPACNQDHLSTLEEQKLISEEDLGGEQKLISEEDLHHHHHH
In short: as §1

[5] = target: T4, mouse NPR1 extracellular domain expressed with a C-terminal mouse IgG2a (mNPR1-mFc) (mouse); assay: SPR, Tables 21 to 26
T4 chain: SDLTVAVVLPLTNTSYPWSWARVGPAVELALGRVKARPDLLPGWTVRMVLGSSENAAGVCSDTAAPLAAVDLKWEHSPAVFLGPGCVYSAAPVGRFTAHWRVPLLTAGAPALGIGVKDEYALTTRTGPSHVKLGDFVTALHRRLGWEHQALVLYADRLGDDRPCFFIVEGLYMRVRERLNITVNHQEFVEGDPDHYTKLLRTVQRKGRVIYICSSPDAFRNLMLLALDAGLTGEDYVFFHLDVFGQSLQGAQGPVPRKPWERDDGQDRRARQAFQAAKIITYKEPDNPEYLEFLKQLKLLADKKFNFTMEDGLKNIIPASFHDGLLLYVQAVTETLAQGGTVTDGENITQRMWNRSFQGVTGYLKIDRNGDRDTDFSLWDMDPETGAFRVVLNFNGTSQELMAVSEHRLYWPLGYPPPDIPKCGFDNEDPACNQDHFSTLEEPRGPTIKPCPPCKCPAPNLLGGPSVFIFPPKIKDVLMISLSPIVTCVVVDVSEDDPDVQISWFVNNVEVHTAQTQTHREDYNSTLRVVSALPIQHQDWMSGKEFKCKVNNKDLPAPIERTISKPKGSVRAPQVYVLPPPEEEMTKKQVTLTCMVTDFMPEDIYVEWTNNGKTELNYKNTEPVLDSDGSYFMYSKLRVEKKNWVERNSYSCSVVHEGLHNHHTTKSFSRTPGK
In short: as §1

[6] = target: T2, human NPR1 extracellular domain …; assay: SPR, mAb captured, 25 C
In short: as §1

[7] = target: T3, monkey NPR1 extracellular domain …; assay: SPR, mAb captured, 25 C
In short: as §1

Chain of mouse NPR1 extracellular domain expressed with a C-terminal myc-myc-hexahistidine (mNPR1-MMH) (P18293 other isoform, or with tags, fused parts or gaps): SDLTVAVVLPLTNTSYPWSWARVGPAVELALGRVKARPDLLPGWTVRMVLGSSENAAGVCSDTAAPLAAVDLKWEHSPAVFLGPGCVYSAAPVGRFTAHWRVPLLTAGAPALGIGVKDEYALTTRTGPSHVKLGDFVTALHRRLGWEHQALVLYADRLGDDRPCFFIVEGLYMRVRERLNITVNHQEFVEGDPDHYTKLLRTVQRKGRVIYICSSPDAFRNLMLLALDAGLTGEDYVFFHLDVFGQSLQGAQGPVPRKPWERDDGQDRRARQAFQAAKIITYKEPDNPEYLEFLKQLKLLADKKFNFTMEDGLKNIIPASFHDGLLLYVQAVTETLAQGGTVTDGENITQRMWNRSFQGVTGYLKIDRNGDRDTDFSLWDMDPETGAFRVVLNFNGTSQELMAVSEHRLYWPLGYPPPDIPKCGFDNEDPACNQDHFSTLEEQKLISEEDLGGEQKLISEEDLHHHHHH

| Binder | 100 nM Ag Bound (RU) [1] | Kd [1] | koff [1] | kon [1] | t½ [1] | 100 nM Ag Bound (RU) [2] | 100 nM Ag Bound (RU) [3] | Kd [3] | koff [3] | kon [3] | t½ [3] | 100 nM Ag Bound (RU) [4] | Kd [4] | koff [4] | kon [4] | t½ [4] | binding result [5] | 100 nM Ag Bound (RU) [6] | Kd [6] | koff [6] | other results |
| --- | --- | --- | --- | --- | --- | --- | --- | --- | --- | --- | --- | --- | --- | --- | --- | --- | --- | --- | --- | --- | --- |
| B1 | 284 RU | 1.3 nM | 0.000312 s⁻¹ | 240000 M⁻¹ s⁻¹ | 0.618 h | 1 RU | 257 RU | 0.2 nM | 0.000127 s⁻¹ | 636000 M⁻¹ s⁻¹ | 1.51 h | 319 RU | 0.702 nM | 0.000374 s⁻¹ | 532000 M⁻¹ s⁻¹ | 0.515 h | no binding | 198 RU | 0.365 nM | 8.2e-05 s⁻¹ | kon [6]: 225000 M⁻¹ s⁻¹; t½ [6]: 2.35 h; 100 nM Ag Bound (RU) [7]: 245 RU; Kd [7]: 0.336 nM; koff [7]: 0.000143 s⁻¹; kon [7]: 426000 M⁻¹ s⁻¹; t½ [7]: 1.35 h |
| B2 | 52 RU | 136 nM | 0.000819 s⁻¹ | 6030 M⁻¹ s⁻¹ | 0.235 h | 1 RU | 75 RU | 3.56 nM | 0.000131 s⁻¹ | 36800 M⁻¹ s⁻¹ | 1.47 h | 131 RU | 27.8 nM | 0.000697 s⁻¹ | 25100 M⁻¹ s⁻¹ | 0.277 h | no binding | 56 RU | 1.03 nM | 6.38e-05 s⁻¹ | kon [6]: 61800 M⁻¹ s⁻¹; t½ [6]: 3.02 h; 100 nM Ag Bound (RU) [7]: 79 RU; Kd [7]: 16.2 nM; koff [7]: 0.000291 s⁻¹; kon [7]: 17900 M⁻¹ s⁻¹; t½ [7]: 0.66 h |
